Where “and” joins values, the source holds several entries; their conditions need not be identical. Equal values may be shown once. Read-outs that look alike come from different tables or passages of the source.

The values that follow come from patent US20250271431A1 (NEW ERA MABS, published 2025).

Assay [1] deals with T1, SARS-CoV-2 Spike protein-RBD-mFc (Acrobiosystem; SPD-C5259) (SARS-CoV-2; mouse, UniProt P0DTC2 319-541).
Assay [2] deals with epitope sequence SEQ ID No 21 ([…]) (SARS-CoV-2). The experiment in a line: RepliTope peptide microarray, Cy5 fluorescence.
Method: (§1) The peptide library consisted of 15-meric peptides representing overlapping peptide scans. […] Incubation took place for 1 hour at 30° C. Biotin-labeled secondary antibody (mouse-anti-camelid IgG) was added at 2 μg/mL and incubated for 1 hour. Detection was visualized using Cy5-labeled streptavidin at 0.1 μg/mL incubated for 1 hour. After washing and drying, the slides were scanned with a high-resolution laser scanner at 635 nm to obtain fluorescence intensity profiles. Resulting images were quantified to yield a mean pixel value for each peptide.
Assay [3] deals with epitope sequence SEQ ID No 25 ([…]) (SARS-CoV-2). The experiment in a line: RepliTope peptide microarray, Cy5 fluorescence.
Method: as §1
The target of assay [4] is epitope sequence SEQ ID No 27 ([…]) (SARS-CoV-2). The experiment in a line: RepliTope peptide microarray, Cy5 fluorescence.
Method: as §1
For assay [5], the target named is epitope sequence SEQ ID No 28 ([…]) (SARS-CoV-2). Briefly: RepliTope peptide microarray, Cy5 fluorescence.
Method: as §1
Assay [6] addresses epitope sequence SEQ ID No 29 ([…]) (SARS-CoV-2). The experiment in a line: RepliTope peptide microarray, Cy5 fluorescence.
Method: as §1
Assay [7] addresses epitope sequence SEQ ID No 30 ([…]) (SARS-CoV-2). Briefly: RepliTope peptide microarray, Cy5 fluorescence.
Method: as §1
Assay [8] addresses epitope sequence SEQ ID No 36 ([…]) (SARS-CoV-2). The experiment in a line: RepliTope peptide microarray, Cy5 fluorescence.
Method: as §1
Assay [9] concerns the target epitope sequence SEQ ID No 38 ([…]) (SARS-CoV-2). The experiment in a line: RepliTope peptide microarray, Cy5 fluorescence.
Method: as §1
In assay [10] the target is epitope sequence SEQ ID No 39 ([…]) (SARS-CoV-2). The experiment in a line: RepliTope peptide microarray, Cy5 fluorescence.
Method: as §1
The target of assay [11] is T1, SARS-CoV-2 Spike protein-RBD-mFc …. Briefly: SPR (Biacore T200), […], kinetic fit 1:1 binding, […].
Assay [12] shares this target. The description is as above. This is another data set of the same source.

B1: hcAb B10 (clone B10), camelid full length IgG2 heavy chain only antibody (antibody, V domains shown)
VH: DVQLQESGGGLVQPGGSLRLSCAASGDINTIGTMNWFRQAPGKGREFVALITSGGTTNYADSVKGRFTVSRDNAKNTVYLQMNSLKPEDTAVYHCYGADHYSDYWGQGTQVTVSS
notes: also called mAb B10
In the case of B1, the Kd in [1] was 0.39 nM; in [11], 0.372 nM and 0.385 nM; in assay [12], 0.397 nM. In addition, the average signal intensity in assay [2] turned out to be 48600 mean pixel value; in assay [3] it was 750 mean pixel value; in [4] it was 14000 mean pixel value; in assay [5], 14000 mean pixel value; in assay [6], 353 mean pixel value; in assay [7], 644 mean pixel value. The average signal intensity in assay [8] is 800 mean pixel value; in assay [9], 18100 mean pixel value; in assay [10] it was 15200 mean pixel value. Further, the dissociation rate constant (koff) in [11] was 0.000454 s⁻¹ and 0.000459 s⁻¹; in [12] it was 0.000463 s⁻¹. In addition, the kon is 1.22e+06 M⁻¹ s⁻¹ and 1.19e+06 M⁻¹ s⁻¹ in assay [11]; 1.17e+06 M⁻¹ s⁻¹ in assay [12].
